In the supplement of paper PMC9112550, “Optimization of the antimicrobial peptide Bac7 by deep mutational scanning” (BMC Biology, 2022):

Tested on: Escherichia coli TOP10
Assay: shrunken log2 fold change of peptide-encoding DNA abundance (4.5 h post-induction vs induction); higher = less antimicrobial activity (less host growth inhibition)
Conditions: time post-induction: 4.5 h; library: site-saturation at positions 5, 18, 19, 20
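Also: peptides expressed intracellularly from a pBAD plasmid library in pooled LB shake-flask culture, induced with 0.3% L-arabinose, DNA abundance read by NGS, three biological replicates, DESeq2 with apeglm shrinkage.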

RRIRVRPPRLPRPRPRPKFPPRP
shrunken log2 fold change: 0.102

RRIRERPPRLPRPRPRPREKPRP
shrunken log2 fold change: 0.354

RRIRQRPPRLPRPRPRPRYDPRP
shrunken log2 fold change: -0.0523

RRIRYRPPRLPRPRPRPKASPRP
shrunken log2 fold change: -0.131

RRIRNRPPRLPRPRPRPHVTPRP
shrunken log2 fold change: -0.357

RRIRHRPPRLPRPRPRPQGFPRP
shrunken log2 fold change: -0.00136

RRIRFRPPRLPRPRPRPADQPRP
shrunken log2 fold change: -0.144

RRIRDRPPRLPRPRPRPYNMPRP
shrunken log2 fold change: -0.0758

RRIRSRPPRLPRPRPRPLTLPRP
shrunken log2 fold change: -0.599

RRIRARPPRLPRPRPRPTQAPRP
shrunken log2 fold change: 1.06

RRIRTRPPRLPRPRPRPEMFPRP
shrunken log2 fold change: -0.0156

RRIRTRPPRLPRPRPRPPYVPRP
shrunken log2 fold change: -0.212

RRIRVRPPRLPRPRPRPAHKPRP
shrunken log2 fold change: -0.0968

RRIRKRPPRLPRPRPRPIRMPRP
shrunken log2 fold change: -0.0295

RRIRGRPPRLPRPRPRPAKKPRP
shrunken log2 fold change: 0.00559

RRIRHRPPRLPRPRPRPEHIPRP
shrunken log2 fold change: -0.142

RRIRDRPPRLPRPRPRPYPEPRP
shrunken log2 fold change: 0.0271

RRIRQRPPRLPRPRPRPSNAPRP
shrunken log2 fold change: -0.198

RRIRIRPPRLPRPRPRPAEYPRP
shrunken log2 fold change: 0.0308

RRIRVRPPRLPRPRPRPIEHPRP
shrunken log2 fold change: -0.168

RRIRVRPPRLPRPRPRPHMFPRP
shrunken log2 fold change: -0.199

RRIRARPPRLPRPRPRPEYFPRP
shrunken log2 fold change: 0.188

RRIRVRPPRLPRPRPRPMAVPRP
shrunken log2 fold change: -0.0191

RRIRYRPPRLPRPRPRPDDNPRP
shrunken log2 fold change: 0.0238

RRIRTRPPRLPRPRPRPNCEPRP
shrunken log2 fold change: 0.111

RRIRQRPPRLPRPRPRPPTKPRP
shrunken log2 fold change: 0.209

RRIRGRPPRLPRPRPRPHMSPRP
shrunken log2 fold change: 1.32

RRIRQRPPRLPRPRPRPWSNPRP
shrunken log2 fold change: -0.00145

RRIRYRPPRLPRPRPRPRTEPRP
shrunken log2 fold change: -0.188

RRIRQRPPRLPRPRPRPQDAPRP
shrunken log2 fold change: -0.253

RRIRFRPPRLPRPRPRPRKEPRP
shrunken log2 fold change: -0.0425

RRIRERPPRLPRPRPRPFKYPRP
shrunken log2 fold change: -0.0322

RRIRTRPPRLPRPRPRPHRPPRP
shrunken log2 fold change: 0.0943

RRIRLRPPRLPRPRPRPCYYPRP
shrunken log2 fold change: -0.936

RRIRARPPRLPRPRPRPPDVPRP
shrunken log2 fold change: 0.655

RRIRYRPPRLPRPRPRPVSQPRP
shrunken log2 fold change: -0.303

RRIRRRPPRLPRPRPRPVVLPRP
shrunken log2 fold change: -0.0732

RRIRIRPPRLPRPRPRPVMHPRP
shrunken log2 fold change: 0.152

RRIRIRPPRLPRPRPRPASFPRP
shrunken log2 fold change: -0.167

RRIRERPPRLPRPRPRPLPNPRP
shrunken log2 fold change: -0.658

RRIRMRPPRLPRPRPRPWEIPRP
shrunken log2 fold change: -0.00146

RRIRTRPPRLPRPRPRPNYQPRP
shrunken log2 fold change: -0.362

RRIRMRPPRLPRPRPRPVPYPRP
shrunken log2 fold change: 0.193

RRIRVRPPRLPRPRPRPPQLPRP
shrunken log2 fold change: 0.0208

RRIRYRPPRLPRPRPRPKTKPRP
shrunken log2 fold change: -0.295

RRIRHRPPRLPRPRPRPKMAPRP
shrunken log2 fold change: -0.0953

RRIRKRPPRLPRPRPRPEKPPRP
shrunken log2 fold change: 0.0899

RRIRTRPPRLPRPRPRPHNWPRP
shrunken log2 fold change: 0.0661

RRIRQRPPRLPRPRPRPGLCPRP
shrunken log2 fold change: -0.0449

RRIRHRPPRLPRPRPRPKQHPRP
shrunken log2 fold change: -0.2

RRIRGRPPRLPRPRPRPYVGPRP
shrunken log2 fold change: 0.0053

RRIRGRPPRLPRPRPRPAEKPRP
shrunken log2 fold change: 0.261

RRIRQRPPRLPRPRPRPGLWPRP
shrunken log2 fold change: 0.452

RRIRCRPPRLPRPRPRPMFYPRP
shrunken log2 fold change: -0.525

RRIRVRPPRLPRPRPRPKEIPRP
shrunken log2 fold change: 0.104

RRIRTRPPRLPRPRPRPNHRPRP
shrunken log2 fold change: -0.209

RRIRKRPPRLPRPRPRPGAVPRP
shrunken log2 fold change: 0.749

RRIRKRPPRLPRPRPRPWPNPRP
shrunken log2 fold change: 0.0221

RRIRWRPPRLPRPRPRPPEQPRP
shrunken log2 fold change: 0.153

RRIRNRPPRLPRPRPRPCSHPRP
shrunken log2 fold change: -0.331

RRIRIRPPRLPRPRPRPMFVPRP
shrunken log2 fold change: -0.279

RRIRYRPPRLPRPRPRPTVYPRP
shrunken log2 fold change: -0.686

RRIRRRPPRLPRPRPRPQKYPRP
shrunken log2 fold change: -0.696

RRIRARPPRLPRPRPRPHRGPRP
shrunken log2 fold change: 0.14

RRIRGRPPRLPRPRPRPLRSPRP
shrunken log2 fold change: 1.67

RRIRNRPPRLPRPRPRPANSPRP
shrunken log2 fold change: -0.153

RRIRARPPRLPRPRPRPQHFPRP
shrunken log2 fold change: 3.55

RRIRLRPPRLPRPRPRPDMGPRP
shrunken log2 fold change: 0.0446

RRIRYRPPRLPRPRPRPALPPRP
shrunken log2 fold change: -0.0414

RRIRWRPPRLPRPRPRPQCDPRP
shrunken log2 fold change: 0.462

RRIRYRPPRLPRPRPRPYTGPRP
shrunken log2 fold change: -0.0103

RRIRCRPPRLPRPRPRPDKPPRP
shrunken log2 fold change: 0.0422

RRIRKRPPRLPRPRPRPVGVPRP
shrunken log2 fold change: 0.515

RRIRFRPPRLPRPRPRPHKDPRP
shrunken log2 fold change: -0.709

RRIRHRPPRLPRPRPRPYKHPRP
shrunken log2 fold change: -0.512

RRIRGRPPRLPRPRPRPDKIPRP
shrunken log2 fold change: 0.813

RRIRVRPPRLPRPRPRPYWVPRP
shrunken log2 fold change: -0.0928

RRIRPRPPRLPRPRPRPFHGPRP
shrunken log2 fold change: -0.252

RRIRQRPPRLPRPRPRPSCLPRP
shrunken log2 fold change: -0.0903

RRIRIRPPRLPRPRPRPMLCPRP
shrunken log2 fold change: -0.0741

RRIRFRPPRLPRPRPRPIRNPRP
shrunken log2 fold change: -0.0537

RRIRHRPPRLPRPRPRPPLHPRP
shrunken log2 fold change: 0.0208

RRIRMRPPRLPRPRPRPEPGPRP
shrunken log2 fold change: 2.73

RRIRYRPPRLPRPRPRPEGEPRP
shrunken log2 fold change: 0.199

RRIRKRPPRLPRPRPRPHSYPRP
shrunken log2 fold change: 0.0421

RRIRIRPPRLPRPRPRPQYGPRP
shrunken log2 fold change: 0.0914

RRIRQRPPRLPRPRPRPRDMPRP
shrunken log2 fold change: -0.046

RRIRVRPPRLPRPRPRPQPEPRP
shrunken log2 fold change: 0.23

RRIRERPPRLPRPRPRPKIDPRP
shrunken log2 fold change: -0.0798

RRIRFRPPRLPRPRPRPPFTPRP
shrunken log2 fold change: 0.0652

RRIRKRPPRLPRPRPRPHNFPRP
shrunken log2 fold change: -0.0511

RRIRNRPPRLPRPRPRPFIGPRP
shrunken log2 fold change: -0.0677

RRIRKRPPRLPRPRPRPRTIPRP
shrunken log2 fold change: 0.262

RRIRIRPPRLPRPRPRPILFPRP
shrunken log2 fold change: -0.273

RRIRNRPPRLPRPRPRPMYMPRP
shrunken log2 fold change: -0.05

RRIRIRPPRLPRPRPRPASCPRP
shrunken log2 fold change: -0.1

RRIRNRPPRLPRPRPRPDNHPRP
shrunken log2 fold change: -0.0531

RRIRIRPPRLPRPRPRPHCVPRP
shrunken log2 fold change: -0.533

RRIRWRPPRLPRPRPRPTMRPRP
shrunken log2 fold change: 0.925

RRIRMRPPRLPRPRPRPNCRPRP
shrunken log2 fold change: -0.135

RRIRTRPPRLPRPRPRPYVYPRP
shrunken log2 fold change: -1.18

RRIRYRPPRLPRPRPRPCLYPRP
shrunken log2 fold change: -0.783

RRIRVRPPRLPRPRPRPHGEPRP
shrunken log2 fold change: 0.0918

RRIRKRPPRLPRPRPRPISFPRP
shrunken log2 fold change: -0.1

RRIRCRPPRLPRPRPRPFYFPRP
shrunken log2 fold change: -0.593

RRIRFRPPRLPRPRPRPPYFPRP
shrunken log2 fold change: 0.0621

RRIRRRPPRLPRPRPRPEIQPRP
shrunken log2 fold change: 0.0536

RRIRHRPPRLPRPRPRPNYNPRP
shrunken log2 fold change: -0.89

RRIRRRPPRLPRPRPRPLNHPRP
shrunken log2 fold change: -0.0852

RRIRKRPPRLPRPRPRPKIDPRP
shrunken log2 fold change: 0.545

RRIRRRPPRLPRPRPRPTQEPRP
shrunken log2 fold change: 0.212

RRIRQRPPRLPRPRPRPEDPPRP
shrunken log2 fold change: -0.00697

RRIRYRPPRLPRPRPRPTPQPRP
shrunken log2 fold change: 0.161

RRIRLRPPRLPRPRPRPVSVPRP
shrunken log2 fold change: -0.118

RRIRFRPPRLPRPRPRPIVFPRP
shrunken log2 fold change: -0.0906

RRIRRRPPRLPRPRPRPHEMPRP
shrunken log2 fold change: 0.489

RRIRYRPPRLPRPRPRPRLIPRP
shrunken log2 fold change: -0.466

RRIRMRPPRLPRPRPRPQCFPRP
shrunken log2 fold change: 0.275

RRIRCRPPRLPRPRPRPSSHPRP
shrunken log2 fold change: -0.0983

RRIRYRPPRLPRPRPRPLVPPRP
shrunken log2 fold change: -0.539

RRIRQRPPRLPRPRPRPENGPRP
shrunken log2 fold change: -0.0161

RRIRDRPPRLPRPRPRPKRVPRP
shrunken log2 fold change: -0.0521

RRIRMRPPRLPRPRPRPHQGPRP
shrunken log2 fold change: 0.013

RRIRGRPPRLPRPRPRPWGRPRP
shrunken log2 fold change: 0.413

RRIRCRPPRLPRPRPRPQPTPRP
shrunken log2 fold change: 0.319

RRIRERPPRLPRPRPRPRLIPRP
shrunken log2 fold change: -0.635

RRIRPRPPRLPRPRPRPKWQPRP
shrunken log2 fold change: 0.225

RRIRARPPRLPRPRPRPIFDPRP
shrunken log2 fold change: 0.0844

RRIRYRPPRLPRPRPRPAPDPRP
shrunken log2 fold change: 0.307

RRIRMRPPRLPRPRPRPSGTPRP
shrunken log2 fold change: 0.215

RRIRFRPPRLPRPRPRPYIFPRP
shrunken log2 fold change: -0.829

RRIRHRPPRLPRPRPRPGVAPRP
shrunken log2 fold change: 0.207

RRIRPRPPRLPRPRPRPLVKPRP
shrunken log2 fold change: -0.0409

RRIRTRPPRLPRPRPRPGAYPRP
shrunken log2 fold change: -0.143

RRIRSRPPRLPRPRPRPFTMPRP
shrunken log2 fold change: -0.811

RRIRFRPPRLPRPRPRPPGRPRP
shrunken log2 fold change: 0.637

RRIRTRPPRLPRPRPRPEPNPRP
shrunken log2 fold change: -0.0182

RRIRSRPPRLPRPRPRPFYVPRP
shrunken log2 fold change: -0.546

RRIRFRPPRLPRPRPRPDGYPRP
shrunken log2 fold change: 0.028

RRIRKRPPRLPRPRPRPYPRPRP
shrunken log2 fold change: -0.00783

RRIRFRPPRLPRPRPRPPEFPRP
shrunken log2 fold change: 0.12

RRIRGRPPRLPRPRPRPHMFPRP
shrunken log2 fold change: 0.445

RRIRFRPPRLPRPRPRPACKPRP
shrunken log2 fold change: -0.0419

RRIRVRPPRLPRPRPRPFFDPRP
shrunken log2 fold change: 1.19

RRIRFRPPRLPRPRPRPQCGPRP
shrunken log2 fold change: -0.0775

RRIRWRPPRLPRPRPRPWDRPRP
shrunken log2 fold change: 0.215

RRIRGRPPRLPRPRPRPTRAPRP
shrunken log2 fold change: 1.04

RRIRMRPPRLPRPRPRPPLKPRP
shrunken log2 fold change: 1.23

RRIRERPPRLPRPRPRPDFHPRP
shrunken log2 fold change: -0.498

RRIRVRPPRLPRPRPRPHISPRP
shrunken log2 fold change: 0.0648
